From publication PMC7473855, “An alpaca nanobody neutralizes SARS-CoV-2 by blocking receptor interaction” (Nature Communications, 2020)
Several values for one entry are separate records, joined by “and”; a condition that tells them apart may be missing. Identical values can stand only once.

Columns and labels:
[1] = target: T1, SARS-CoV-2 spike receptor-binding domain (RBD) (SARS-CoV-2, UniProt P0DTC2 319-541); assay: ITC; conditions: both partners purified
T1 construct: also called monomeric RBD

[2] = target: T1, SARS-CoV-2 spike receptor-binding …; assay: BLI; conditions: both partners purified

Binder	Kd [1]	dH [1]	Kd [2]
Ty1 nanobody (VHH) VHH: QVQLVETGGGLVQPGGSLRLSCAASGFTFSSVYMNWVRQAPGKGPEWVSRISPNSGNIGYTDSVKGRFTISRDNAKNTLYLQMNNLKPEDTALYYCAIGLNLSSSSVRGQGTQVTVSS	9 nM	~-10 kcal/mol	
Ty1 nanobody, biotinylated on the C-terminus (VHH, biotin on the C-terminus (GGGK-biotin joined by Sortase A), not shown: Sortase recognition site (LPETG), C-terminal, kept) VHH: QVQLVETGGGLVQPGGSLRLSCAASGFTFSSVYMNWVRQAPGKGPEWVSRISPNSGNIGYTDSVKGRFTISRDNAKNTLYLQMNNLKPEDTALYYCAIGLNLSSSSVRGQGTQVTVSS			8 nM and 13 nM
